Broadly, the Kd is the free concentration of one partner at which half of the binding sites on the other are occupied at equilibrium, for simple one-to-one binding. Read a high Kd as weaker binding.

What all share (assay): EMSA
What all share (details): tags: MBP fusion

One series has as its target T1, ZFP SBS#1246 (synthetic).
T1 chain: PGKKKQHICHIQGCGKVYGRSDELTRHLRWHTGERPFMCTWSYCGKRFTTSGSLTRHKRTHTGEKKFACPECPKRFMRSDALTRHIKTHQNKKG
Summed up:
(§1)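 Purified ZFP was titrated against labeled double-stranded target (1 nM or lower, at least 10-fold below expected Kd) carrying the natural binding site with flanks. Binding buffer was 10 mM Tris pH 7.5, 100 mM KCl, 1 mM MgCl2, 0.1 mM ZnCl2, 5 mM DTT, 10% glycerol, 0.02% BSA, with equilibration for at least 45 min. Bound and free target were separated on a 10% polyacrylamide gel.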

A further series concerns the target T2, ZFP SBS#1247 (synthetic).
T2 chain: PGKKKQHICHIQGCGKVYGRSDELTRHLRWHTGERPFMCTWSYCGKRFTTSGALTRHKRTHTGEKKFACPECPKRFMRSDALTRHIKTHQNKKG
In short, it runs like this:
as §1

Another series addresses T3, ZFP SBS#1229 (synthetic).
T3 chain: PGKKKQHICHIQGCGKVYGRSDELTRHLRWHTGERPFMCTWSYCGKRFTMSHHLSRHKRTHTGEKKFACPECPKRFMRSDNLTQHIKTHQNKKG
In short, it runs like this: as §1

The target of a further series is ZFP SBS#1140 (synthetic). In short, it runs like this:
as §1

A further series has as its target ZFP SBS#490 (synthetic). In short, it runs like this:
as §1

The next series concerns the target T4, ZFP SBS#488 (synthetic).
T4 chain: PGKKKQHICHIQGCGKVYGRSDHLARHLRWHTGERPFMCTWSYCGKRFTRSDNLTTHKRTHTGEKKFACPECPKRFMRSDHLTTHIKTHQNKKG
Summed up:
as §1

The target of another series is T5, ZFP SBS#1242 (synthetic).
T5 chain: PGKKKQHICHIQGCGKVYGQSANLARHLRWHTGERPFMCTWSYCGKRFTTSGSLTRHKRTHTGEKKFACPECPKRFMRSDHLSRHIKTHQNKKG
Summed up:
as §1

Another series has as its target T6, ZFP SBS#1243 (synthetic).
T6 chain: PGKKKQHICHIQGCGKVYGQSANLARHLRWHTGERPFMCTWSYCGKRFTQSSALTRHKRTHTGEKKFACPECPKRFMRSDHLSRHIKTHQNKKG
In short, it runs like this:
as §1

The target of a further series is T7, ZFP SBS#1232 (synthetic).
T7 chain: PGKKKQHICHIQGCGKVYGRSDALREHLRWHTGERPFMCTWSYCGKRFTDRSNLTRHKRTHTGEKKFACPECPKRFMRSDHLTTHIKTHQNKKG
Summed up:
as §1

Another series addresses T8, ZFP SBS#1233 (synthetic).
T8 chain: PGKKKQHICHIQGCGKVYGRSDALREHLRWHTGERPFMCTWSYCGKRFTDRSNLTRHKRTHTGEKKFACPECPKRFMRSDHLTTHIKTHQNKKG
Summed up: as §1

The target in the next series is T9, ZFP SBS#1004 (synthetic).
T9 chain: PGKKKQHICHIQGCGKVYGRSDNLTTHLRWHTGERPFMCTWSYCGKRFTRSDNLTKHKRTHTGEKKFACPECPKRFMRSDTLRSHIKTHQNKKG
In short, it runs like this:
as §1

For another series, the target named is T10, ZFP SBS#1255 (synthetic).
T10 chain: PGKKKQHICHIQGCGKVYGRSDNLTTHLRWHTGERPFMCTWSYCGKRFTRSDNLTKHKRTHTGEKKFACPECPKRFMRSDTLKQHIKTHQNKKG
Summed up: as §1

Another series concerns the target T11, ZFP SBS#1020 (synthetic).
T11 chain: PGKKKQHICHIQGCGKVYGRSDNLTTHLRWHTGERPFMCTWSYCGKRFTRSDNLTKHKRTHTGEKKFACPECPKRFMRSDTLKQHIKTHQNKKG
In short, it runs like this:
as §1

For the next series, the target named is T12, ZFP SBS#1003 (synthetic).
T12 chain: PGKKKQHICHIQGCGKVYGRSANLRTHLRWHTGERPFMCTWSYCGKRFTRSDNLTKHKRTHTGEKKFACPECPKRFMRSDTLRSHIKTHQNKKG
In short, it runs like this: as §1

The next series has as its target ZFP SBS#998 (synthetic). Summed up: as §1
A further series addresses T13, ZFP SBS#1238 (synthetic).
T13 chain: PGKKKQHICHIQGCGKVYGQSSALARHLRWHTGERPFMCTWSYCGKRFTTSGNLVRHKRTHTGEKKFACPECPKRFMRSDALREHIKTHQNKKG
In short, it runs like this:
as §1

In another series the target is ZFP SBS#1230 (synthetic). In short, it runs like this:
as §1

Another series addresses T14, ZFP SBS#1231 (synthetic).
T14 chain: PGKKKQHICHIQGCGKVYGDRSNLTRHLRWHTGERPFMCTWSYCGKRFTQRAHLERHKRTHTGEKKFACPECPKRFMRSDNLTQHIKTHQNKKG
Summed up:
as §1

In another series the target is ZFP SBS#1237 (synthetic). In short, it runs like this:
as §1

Another series concerns the target ZFP SBS#1250 (synthetic). In short, it runs like this:
as §1

The target of the next series is ZFP SBS#1244 (synthetic). In short, it runs like this: as §1
For the next series, the target named is T15, ZFP SBS#1245 (synthetic).
T15 chain: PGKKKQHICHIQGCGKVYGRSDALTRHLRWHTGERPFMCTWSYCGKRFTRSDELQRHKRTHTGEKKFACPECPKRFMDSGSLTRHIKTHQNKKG
In short, it runs like this:
as §1

The target of the next series is T16, ZFP SBS#1228 (synthetic).
T16 chain: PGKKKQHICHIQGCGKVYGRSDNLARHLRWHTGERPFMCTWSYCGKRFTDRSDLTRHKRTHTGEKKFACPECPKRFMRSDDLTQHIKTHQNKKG
In short, it runs like this: as §1

The next series deals with T17, ZFP SBS#1139 (synthetic).
T17 chain: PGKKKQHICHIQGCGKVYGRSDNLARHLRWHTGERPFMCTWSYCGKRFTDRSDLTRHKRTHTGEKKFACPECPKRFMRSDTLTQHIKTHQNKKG
In short, it runs like this: as §1

Another series addresses T18, ZFP SBS#261 (synthetic).
T18 chain: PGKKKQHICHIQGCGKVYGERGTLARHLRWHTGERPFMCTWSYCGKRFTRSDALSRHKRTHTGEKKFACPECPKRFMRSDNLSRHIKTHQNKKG
Summed up:
as §1

For a further series, the target named is T19, ZFP SBS#1240 (synthetic, UniProt P08047).
T19 chain: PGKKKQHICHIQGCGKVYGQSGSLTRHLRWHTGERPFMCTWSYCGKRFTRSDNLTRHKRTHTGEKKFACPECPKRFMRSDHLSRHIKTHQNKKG
In short, it runs like this: as §1

A further series has as its target T20, ZFP SBS#1249 (synthetic).
T20 chain: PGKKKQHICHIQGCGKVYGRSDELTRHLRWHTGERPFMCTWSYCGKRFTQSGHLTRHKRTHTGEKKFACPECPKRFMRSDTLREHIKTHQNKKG
In short, it runs like this:
as §1

A further series has as its target T21, ZFP SBS#1253 (synthetic).
T21 chain: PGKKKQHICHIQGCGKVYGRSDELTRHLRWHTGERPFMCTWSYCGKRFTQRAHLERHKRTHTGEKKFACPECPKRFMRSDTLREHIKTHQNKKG
In short, it runs like this:
as §1

Another series has as its target T22, ZFP SBS#487 (synthetic).
T22 chain: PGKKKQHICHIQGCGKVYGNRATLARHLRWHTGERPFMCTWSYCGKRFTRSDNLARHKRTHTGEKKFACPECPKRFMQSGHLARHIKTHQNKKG
In short, it runs like this: as §1

The target in the next series is ZFP SBS#485 (synthetic). In short, it runs like this: as §1
Chain of ZFP SBS#485 (synthetic) (chain, as listed by the source): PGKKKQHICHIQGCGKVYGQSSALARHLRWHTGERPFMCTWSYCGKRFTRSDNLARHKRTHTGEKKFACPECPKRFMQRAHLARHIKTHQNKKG
For the next series, the target named is ZFP SBS#1227 (synthetic). In short, it runs like this: as §1
Chain of ZFP SBS#1227 (synthetic) (chain, as listed by the source): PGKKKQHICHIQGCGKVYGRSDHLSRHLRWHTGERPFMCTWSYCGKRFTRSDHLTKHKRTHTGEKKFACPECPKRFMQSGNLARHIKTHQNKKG
The target in a further series is T23, ZFP SBS#1223 (synthetic).
T23 chain: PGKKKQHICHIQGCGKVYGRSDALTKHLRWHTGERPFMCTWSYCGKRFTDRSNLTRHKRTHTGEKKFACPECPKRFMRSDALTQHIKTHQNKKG
In short, it runs like this: as §1

For the next series, the target named is T24, ZFP SBS#1224 (synthetic).
T24 chain: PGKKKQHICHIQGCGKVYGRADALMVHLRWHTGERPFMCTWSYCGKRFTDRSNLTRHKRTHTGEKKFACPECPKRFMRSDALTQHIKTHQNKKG
In short, it runs like this:
as §1

For a further series, the target named is T25, ZFP SBS#1141 (synthetic).
T25 chain: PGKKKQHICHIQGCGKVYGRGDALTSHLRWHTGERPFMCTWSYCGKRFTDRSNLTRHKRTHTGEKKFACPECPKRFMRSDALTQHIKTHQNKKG
Summed up:
as §1

Chain of ZFP SBS#1230 (synthetic) (chain, as listed by the source): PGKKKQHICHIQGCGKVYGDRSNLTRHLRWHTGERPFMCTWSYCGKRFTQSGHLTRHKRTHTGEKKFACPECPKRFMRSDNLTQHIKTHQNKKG
Chain of ZFP SBS#1140 (synthetic) (chain, as listed by the source): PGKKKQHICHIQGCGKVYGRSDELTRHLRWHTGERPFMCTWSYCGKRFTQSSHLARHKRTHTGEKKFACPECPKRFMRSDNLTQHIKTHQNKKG
Chain of ZFP SBS#1250 (synthetic) (chain, as listed by the source): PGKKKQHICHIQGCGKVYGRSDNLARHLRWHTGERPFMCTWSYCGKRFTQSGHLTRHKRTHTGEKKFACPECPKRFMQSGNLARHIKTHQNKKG
Chain of ZFP SBS#490 (synthetic) (chain, as listed by the source): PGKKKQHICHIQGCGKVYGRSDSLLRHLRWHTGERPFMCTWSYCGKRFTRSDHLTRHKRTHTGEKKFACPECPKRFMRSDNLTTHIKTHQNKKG
Chain of ZFP SBS#998 (synthetic) (chain, as listed by the source): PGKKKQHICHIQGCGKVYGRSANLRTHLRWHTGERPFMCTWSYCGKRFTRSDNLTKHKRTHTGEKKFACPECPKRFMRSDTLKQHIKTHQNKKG
Chain of ZFP SBS#1237 (synthetic) (chain, as listed by the source): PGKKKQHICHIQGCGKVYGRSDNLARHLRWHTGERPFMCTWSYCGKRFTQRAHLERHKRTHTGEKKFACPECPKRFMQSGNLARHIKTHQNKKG

B1: GTGGTTGCG (dsDNA)
DNA 1: GTGGTTGCG
DNA 2: CGCAACCAC
Take B1: the figures for the Kd with ZFP SBS#1246 and with ZFP SBS#1247 were 0.051 nM and 0.117 nM, respectively.

B2: AAGGGTGCG (dsDNA)
DNA 1: AAGGGTGCG
DNA 2: CGCACCCTT
B2: the Kd with ZFP SBS#1229 came to 8.2 nM; in the series with ZFP SBS#1140, 0.3 nM.

B3: TAGGGGGTGG (dsDNA)
DNA 1: TAGGGGGTGG
DNA 2: CCACCCCCTA
The molecule B3 registered a Kd with ZFP SBS#490 of 1.5 nM.

B4: TGGTAGGGGG (dsDNA)
DNA 1: TGGTAGGGGG
DNA 2: CCCCCTACCA
Take B4: binding with ZFP SBS#488 was put at a Kd of 35 nM.

B5: GGGGTTGAA (dsDNA)
DNA 1: GGGGTTGAA
DNA 2: TTCAACCCC
Take B5: the Kd in the series with ZFP SBS#1242 amounted to 0.02 nM; in the series with ZFP SBS#1243, 0.101 nM.

B6: TGGGACCTG (dsDNA)
DNA 1: TGGGACCTG
DNA 2: CAGGTCCCA
With B6, the values for the Kd with ZFP SBS#1232 and with ZFP SBS#1233 were 0.113 nM and 0.635 nM, respectively.

B7: ACGTAGTAG (dsDNA)
DNA 1: ACGTAGTAG
DNA 2: CTACTACGT
With B7, the Kd in the series with ZFP SBS#1004 is 1.4 nM; with ZFP SBS#1255 it was 0.69 nM; with ZFP SBS#1020 it was 0.69 nM; with ZFP SBS#1003 it was 0.118 nM; with ZFP SBS#998, 0.23 nM.

B8: CTGGATGTT (dsDNA)
DNA 1: CTGGATGTT
DNA 2: AACATCCAG
Regarding B8, the Kd with ZFP SBS#1238 came to 0.313 nM.

B9: AAGGGAGAC (dsDNA)
DNA 1: AAGGGAGAC
DNA 2: GTCTCCCTT
As to B9, the Kd with ZFP SBS#1230 was 0.383 nM; in the series with ZFP SBS#1231 it was 0.213 nM.

B10: GAAGGAGAG (dsDNA)
DNA 1: GAAGGAGAG
DNA 2: CTCTCCTTC
Consider B10, for which the Kd with ZFP SBS#1237 amounted to 0.065 nM; with ZFP SBS#1250, 0.31 nM.

B11: GTCGCGGTG (dsDNA)
DNA 1: GTCGCGGTG
DNA 2: CACCGCGAC
Regarding B11, the Kd with ZFP SBS#1244 came to 0.044 nM; in the series with ZFP SBS#1245 it was 0.102 nM.

B12: ACGGCCGAG (dsDNA)
DNA 1: ACGGCCGAG
DNA 2: CTCGGCCGT
Take B12: the Kd with ZFP SBS#1228 was determined as 12 nM; in the series with ZFP SBS#1139, 0.535 nM.

B13: GAGGTGGCC (dsDNA)
DNA 1: GAGGTGGCC
DNA 2: GGCCACCTC
In turn, B13 gave a Kd with ZFP SBS#261 of 0.5 nM.

B14: GGGGAGGCA (dsDNA)
DNA 1: GGGGAGGCA
DNA 2: TGCCTCCCC
As to B14, in the series with ZFP SBS#1240, the Kd was determined as 0.056 nM.

B15: CCGGGAGCG (dsDNA)
DNA 1: CCGGGAGCG
DNA 2: CGCTCCCGG
Regarding B15, the Kd with ZFP SBS#1249 was 0.26 nM; with ZFP SBS#1253 it was 0.228 nM.

B16: GGAGAGGTTT (dsDNA)
DNA 1: GGAGAGGTTT
DNA 2: AAACCTCTCC
Turning to B16, the Kd is 76.9 nM with ZFP SBS#487 and 110 nM in the series with ZFP SBS#485.

B17: GAATAGGGG (dsDNA)
DNA 1: GAATAGGGG
DNA 2: CCCCTATTC
The molecule B17 yielded a Kd with ZFP SBS#1227 of 25 nM.

B18: ATGGACTTG (dsDNA)
DNA 1: ATGGACTTG
DNA 2: CAAGTCCAT
As for B18, the Kd with ZFP SBS#1223 stood at 7 nM; with ZFP SBS#1224 it was 12 nM; with ZFP SBS#1141 it was 1.7 nM.

The values above are taken from patent US20030068675, “Position dependent recognition of GNN nucleotide triplets by zinc fingers” (published 2003).
